In US20180364256A1 (WAYNE STATE UNIVERSITY, published 2018):

T1: N-terminal fragment of human cardiac troponin T (HcTnT-N69) (human)
T1 construct: Recombinantly produced and purified; immobilised on microtiter plates in the ELISA; also the immunogen; also called N69 peptide; isolated (free, cleaved) HcTnT-N69 peptide
T1 peptide: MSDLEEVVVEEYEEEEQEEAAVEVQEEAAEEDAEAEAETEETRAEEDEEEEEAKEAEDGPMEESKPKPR

B1: mouse monoclonal antibody 2H3 (antibody, IgM, V domains shown)
VH: GGGLVQPKGSLKLSCAASGFTFNTYAMNWVRQAPGKGLEWVARIRSKSNNYATYYADSVKDRFTISRDDSQSMLYLQMNNLKTEDTAMYYCVRHDGVAWFAYWGQGTLVTVSA
VL: LSLPVSLGDQASISCRSSQSIVHSNGNTYLEWYLQKPGQSPKLLIYKVSNRFSGVPDRFSGSGSGTDFTLKISRVKAEDLGVYYCFQGSHVPPTFGAGTKLELKR
notes: Mouse hybridoma mAb, IgM kappa (VH3/VL5); also called mAb 2H3; Class V mAb
B2: mouse monoclonal antibody 4F5 (antibody, IgM, V domains shown)
VH: GGGLVQPKGSLKLSCAASGFTFNTYAMNWVRQAPGKGLEWVARIRSKSNNYATYYADSVKDRFTISRDDSQSMLYLQMNNLKTEDTAMYYCVRHDGVAWFAYWGQGTLVTVSA
VL: LSLPVSLGDQASISCKSSQSIVHSNGNTYLEWYLQKPGQSPKLLIYKVSNRFSGVPDRFSGSGSGTDFTLKISRVKAEDLGVYYCFQGSHVPPTFGAGTKLELKR
notes: Mouse hybridoma mAb, IgM kappa (VH3/VL6); also called mAb 4F5; Class VI mAb
B3: mouse monoclonal antibody 2D9 (antibody, IgM, V domains shown)
VH: GGGLVQPKGSLKLSCAASGFTFNTYAMNWVRQAPGKGLEWVARIRSKSNNYATYYADSVKDRFTISRDDSQSMLYLQMNNLKTEDTAMYYCVRHDGVAWFAYWGQGTLVTVSA
VL: LSLPVSLGDQASISCKSSQSIVHSNGNTYLKWYLQKPGQSPKLLIYKVSNRFSGVPDRFSGSGSGTDFTLKISRVKAEDLGVYYCFQGSHVPPTFGAGTKLELKR
notes: Mouse hybridoma mAb, IgM kappa (VH3/VL7); also called mAb 2D9; Class VII mAb
B4: mouse monoclonal antibody 1E11 (antibody, IgG3, V domains shown)
VH: GAELAKPGASVKMSCKASGYTFTTYWMHWVKQRPGQGLEWIGFINPSTGYTEYNQKFKDKATLTADKSSSTAYMQLSSLTSGDSAVYYCARKSFAYWGHGTLVTVSA
VL: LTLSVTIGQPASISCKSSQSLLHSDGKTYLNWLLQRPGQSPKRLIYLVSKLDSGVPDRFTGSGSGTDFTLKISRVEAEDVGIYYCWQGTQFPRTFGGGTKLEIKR
notes: Mouse hybridoma mAb, IgG3 kappa (VH2/VL3); also called mAb 1E11; Class III mAb
B5: mouse monoclonal antibody 3H5 (antibody, IgM, V domains shown)
VH: GGGLVQPKGSLKLSCAASGFTFNTYAMNWVRQAPGKGLEWVARIRSKSNNYATYYADSVKDRFTISRDDSQSMLYLQMNNLKTEDTAMYYCVRHDGVAWFAYWGQGTLVTVSA
VL: LSLPVSLGDQASISCRSSQSIVHSNGNTYLEWYLQKPGQSPKLLIYKVSNRFSGVPDRFSGSGSGTDFTLKISRVEAEDLGVYYCFQGSHVPPTFGAGTKLELKR
notes: Mouse hybridoma mAb, IgM kappa (VH3/VL4); also called mAb 3H5; Class IV mAb
B6: mouse monoclonal antibody 1D6 (antibody, V domains shown)
VH: GPELVKPGASVKISCKTSGYTFTENTIHWVKQSHGKSLEWVGGINPNNGGTNYNQKFKGRAALTVDKSSSTAYMELRSLTSEDSAVYYCARSWDWFAYWGQGTLVTVSA
VL: LSLPVSLGDQASISCRSSQSLVHSNGNTYLHWYLQKPGQSPKLLVYKVSNRFSGVPDRFSGSGSGTDFTLKIIRVEAEDLGVYFCSQSTRIPFTFGSGTKLEMKR
notes: Mouse hybridoma mAb, IgG1 kappa (VH1/VL1); they appear to lack the first N-terminal residues; also called mAb 1D6; Class I mAb
B7: mouse monoclonal antibody 2A8 (antibody, V domains shown)
VH: GPELVKPGASVKISCKTSGYTFTENTIHWVKQSHGKSLEWVGGINPNNGGTNYNQKFKGRAALTVDKSSSTAYMELRSLTSEDSAVYYCARSWDWFAYWGQGTLVTVSA
VL: LSLPVSLGDQASISCRSSQSLVHSNGNTYLHWYLQKPGQSPKLLVYKVSNRFSGVPDRFSGSGSGTDFTLKIIRVEAEDLGVYFCSQSTRIPFTFGSGTKLEMKR
notes: Mouse hybridoma mAb, IgG1 kappa (VH1/VL1), separately isolated hybridoma with the same variable regions as 1D6; also called Class I mAb; anti-N69 mAb
B8: mouse monoclonal antibody 2C1 (antibody, V domains shown)
VH: GPELVKPGASVKISCKTSGYTFTENTIHWVKQSHGKSLEWVGGINPNNGGTNYNQKFKGRAALTVDKSSSTAYMELRSLTSEDSAVYYCARSWDWFAYWGQGTLVTVSA
VL: LSLPVSLGDQASISCRSSQSLVHSNGNTYLHWYLQKPGQSPKLLVYKVSNRFSGVPDRFSGSGSGTDFTLKIIRVEAEDLGVYFCSQSTRIPFTFGSGTKLEMKR
notes: as for B7
B9: mouse monoclonal antibody 2D11 (antibody, IgG1, V domains shown)
VH: GPELVKPGASVKISCKTSGYTFTENTIHWVKQSHGKSLEWVGGINPNNGGTNYNQKFKGRAALTVDKSSSTAYMELRSLTSEDSAVYYCARSWDWFAYWGQGTLVTVSA
VL: LSLPVSLGDQASISCRSSQSLVHSNGNTYLHWYLQKPGQSPKLLVYKVSNRFSGVPDRFSGSGSGTDFTLKIIRVKAEDLGVYFCSQSTRIPFTFGSGTKLEMKR
notes: Mouse hybridoma mAb, IgG1 kappa (VH1/VL2); also called mAb 2D11; Class II mAb

Molecular target: T1, N-terminal fragment of human cardiac …
Experiment: assay not named in the sentence (ELISA titration per the Examples)
Method: (§1) Purified HcTnT-N69 (also called N69) having the amino acid sequences shown in SEQ ID NO:1 or intact human cTnT antigen was immobilized on microtiter plates. After washing and blocking the plastic surface with 1% BSA and 0.05% Tween-20, the immobilized antigen was incubated with serial dilutions of the anti-N69 mAbs. Following washes to remove the unbound antibody, the plates were further incubated with HRP-conjugated second antibody followed by washes and H₂O₂-ABTS substrate reaction. A₄₁₅ₙₘ curve for each assay well was recorded by an automated microplate reader.

Binding result, binds:
B1
B2
B3

Molecular target: T1, N-terminal fragment of human cardiac …
Experiment: indirect ELISA titration, antigen immobilised on plate
Method: as §1

Binding result, binds:
B4
B5
B6
B7
B8
B9
